The values that follow come from article PMC9303552 (Angewandte Chemie (International Ed. in English), 2022).

First the molecules themselves.
B2: GST-CHIP (carboxyl terminus of Hsp70 interacting protein, full length) (enzyme, human, UniProt Q9UNE7 1-303, looked up)
chain: MKGKEEKEGGARLGAGGGSPEKSPSAQELKEQGNRLFVGRKYPEAAACYGRAITRNPLVAVYYTNRALCYLKMQQHEQALADCRRALELDGQSVKAHFFLGQCQLEMESYDEAIANLQRAYSLAKEQRLNFGDDIPSALRIAKKKRWNSIEERRIHQESELHSYLSRLIAAERERELEECQRNHEGDEDDSHVRAQQACIEAKHDKYMADMDELFSQVDEKRKKRDIPDYLCGKISFELMREPCITPSGITYDRKDIEEHLQRVGHFDPVTRSPLTQEQLIPNLAMKEVIDAFISENGWVEDY

The target in test [1] is B2. The test can be described thus: NMR titration.
Test [2] deals with T1, Tau 2N4R isoform (full-length Tau) (human, UniProt P10636-8 1-441). Briefly: NMR titration.
The target of test [3] is T1, Tau 2N4R isoform (full-length Tau). Briefly: ITC. In general terms: ITC needs no label: the signal is the heat of the interaction.

B1: Tau1-152 (domain or fragment, human, UniProt P10636-8 1-152, looked up)
chain: MAEPRQEFEVMEDHAGTYGLGDRKDQGGYTMHQDQEGDTDAGLKESPLQTPTEDGSEEPGSETSDAKSTPTAEDVTAPLVDEGAPGKQAAAQPHTEIPEGTTAEEAGIGDTPSLEDEAAGHVTQARMVSKSKDGTGSDDKKAKGADGKTKIA
With B1, the binding result in test [1] is “binds”.

By Kd is commonly meant the free concentration of one partner at which half of the binding sites on the other are occupied at equilibrium, for simple one-to-one binding. In test [2], B2 had an equilibrium dissociation constant (Kd) of 14 µM. This lies in the double-digit micromolar range.

B3: isolated TPR domain of CHIP (domain or fragment, human)
chain: EKSPSAQELKEQGNRLFVGRKYPEAAACYGRAITRNPLVAVYYTNRALCYLKMQQHEQALADCRRALELDGQSVKAHFFLGQCQLEMESYDEAIANLQRAYSLAKEQRLNFGDDIPSALRIAKKKRWNSIEERR
The molecule B3 registered a Kd in test [3] of 360 µM.
